Source: the domain aggregation screens of Martell et al. (2025)

Assay: soluble fraction after stress (log2 fold change); higher = more stays soluble; pooled small domains, quantitative proteomics
Conditions: stress: 75 degC
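Also: 20 min heating vs room temperature control held 20 min.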

| Sequence | soluble fraction (log2) |
| --- | --- |
| HMIPDLPAVGVNVHKERRRQQLSLDALAAGSGVSKAMLSQIESGKVNPTVATMWKIAHALGVDFELLLKGE | -0.982 |
| HMIPDPPALGSNLHRERRRQQLSLDALAAASGVSKAMLSQIEADKVNPTIATMWKIAHALNIDFETLLRGE | -0.963 |
| HMIPENKRVLISLTYIYGIGKKISQDILEKANIDSSIKTSQLTDDDVARIRQLIENDYLVEGELRV | 0.0291 |
| HMIPLPEDVASMRERLALTPEKADELFGLEDGSFARYEHGEEKVPFVVFQLLWLLGKYPHLIGELR | -1.2 |
| HMIPRGFSRYYILELLQKKPHTGKEIIDNAIKESGGRWNPSPGLIYPLLGRLLDENLIEETNDGKYK | -2.24 |
| HMIPSLTITVNEHSRQITRGTSLYTLRDALYPDADVLVVNGHPADSDRHLEEGDAVVLIRRGA | -0.456 |
| HMIQIQDIAFSEFLQELDKGNIVEVNIKGDLINGDLINGKKFKTVAPYDPNLVEKLSKQNVRINVEPIN | 0.157 |
| HMIQLKEHDVVRLRETIVENDEKIPAGTRGVVLSVYDGGRAFAVEVADDRAASAIITAFRDQLEVY | -0.467 |
| HMIQNTGMMESGDSIRGMALDAGFPLLMVVGYRGWTRKGNTPDSAAVYTEPFLNAFRLNYYLVEHDE | 0.3 |
| HMIQVNKTQALIIEEMRDNPNITLLELQKTLSLGRTAIQNNVSSLRKRQIIKRVGSNKNGYWEVTDK | -1.89 |
| HMIRQETYLLVRKAVGALPVQMRKIIELAMQGKKNAEIAAQLSISEGTVHTLKKTAYKKLRDRLQE | -3.12 |
| HMIRQGTKQALLIEMLQRPEGASITEIVEATSWQAHTARGAISGALKKKLGLPITSEKHPERGTVYKL | -0.862 |
| HMISAQEQALRNLKLSNGMTWKALAKALGITERSILSYVAAPGTKGYREMPAEVWHKLENISGH | -0.0432 |
| HMISDAEWTIMKALWQSEDKKMTLKEIAEAVADSGWSYTTVRTMVGRLVEKEAIEADESHPRNFRYSAA | -1.2 |
| HMISEGDIIKGTVIDVNEEEVILDLKYYAQGVIKAENLSNDPDFLAAGKISVGDEIEATVIKMDDGEGNIE | 0.529 |
| HMISESIPAKDALLRLLNTAYQTRTNAAGEFYFNDVPPGKYILQASVNDVEIIRENISINEN | -0.377 |
| HMISEWDAAYSYAKQYYEENGHLFVPKKYVTSEGAALGKWIWEQRDSYLGLSSYKISDKKIEMLEDIGMFW | -4.03 |
| HMISINVIGEMISGSYGNTPFSRTYEKDIYEQMVKLSDDADQAQTVEEYNKILAEFSLLTTEDLK | -0.546 |
| HMISKWGELVDLAVQLDIIQKSGSWFSMGDERIGQGANSVKDYLIANPDIAEKVEAEVRENLWKLN | -0.625 |
| HMISKYLRIESDILSAIREGRLKPGDKLPGQSEMRRIYNVSAITVRKAFTDLINDGYLVGVRGSGTYVAKR | -0.91 |
| HMISQATMEKMGLTNRERQLVDFIVRGASNQEISEKMFISINTVKIHVSNIFRKAGVRSRTELMDKYP | -3.26 |
| HMISSKDIINDEDGARLGKIADVEIDVATGKILSVHVYRSFKLLHLFGNKDVVQIPWNKIMKIGSDVVIVE | 0.102 |
| HMISVENLSNREFEIFQLIGNGFSTKEMAKKLNLSIYTVESHKKNIKEKLKLKNSSDLSKYAIQWVIMQN | -2.94 |
| HMITANNYFNEVERIGVETLPETLRKGHDLVVRSTNSGTNWSNYQNNESIRKVIDLYLQKLNEYVSTST | 0.294 |
| HMITGSIQPKNGKYYAVLNLYDHTGKRRPKWVSTGYTVKGNKKKAQEVLNELTRRYSAQLPPSK | -1.05 |
| HMITLPDFVGKDVETVKAWAKENGITLIVNKVEDSAKKDTVISQTPTTYDYSKIMKGSSFTVNVAKE | 0.206 |

| Sequence | soluble fraction (log2) |
| --- | --- |
| HMITNLEPFKDFVRGFSGLHLEGVGQEKLAAALDERIRKTGSANERDYLQLIMEDVAERLKLINILT | -0.627 |
| HMITPAARLRALKIRLSVDEVAQIVQRLVNGETVYQIGKPDTGGHAKATVGKINALRLAGQLHFL | -1.45 |
| HMITTLLVENLQDVGMRLDHYLVYNLIKYSRSHIQSFIRSGDIRVNGKKVKTGYSLELKDLIHIEMP | -3.66 |
| HMITVPKVINMSETQARQTLDALGLNVTLSATQVMNDKIPYGYVAAQSYSAGKEVPAGTTIELTMSIGL | -2.03 |
| HMIVDYPSFVGKTKQELEKWAKENNIIIRYRQLSVTASDKVKAQLPATTTYKRIMKGSSIEVELEL | -2.44 |
| HMIVIMKAKAEEEDVNRVIDTIQSLGLRTQLNLGAERMVVAVIGDISKIGEDNFFRIRAMKGVENTVFVSK | -2.12 |
| HMIVMPELRGKDLKEAERLLSSHNLRYELVDSVYDKSLAPGVVVEMVPQSGNTVKPGRIIFLSINA | -0.982 |
| HMIVNTTRAPYLLGETEQDAMRLARQAGLVPEIVRQSSAEPAGTVILQSHDFDYRMRRGSVILITVSTGPL | -2.84 |
| HMIVPPAIPFRALGIFGPRDRPIVTFEDGPRLINAREGDVLDGRFILRRVGRESVDFAFVGLPPEITRRIP | -0.571 |
| HMIVSEYIIIGGDKKEYGPVSMGEVGEWVQGGRANGDSKIKKVGTEEWGRLRDFPEFSAYLS | 0.121 |
| HMIVVMARETSTDDLEAIRERIESRGMVAQINLGVERTVIGVMGSIPPDFKDEMELMNGVVEVVMISK | -2.56 |
| HMIVVMKTSASERDLQEVIARIEQFGFATRSIVGSERATVSVLGAPLPDSLQEALERMPGVEEVVRITK | -1.48 |
| HMIYAEDFVGRQGTANTILRPSGRIEIEGEVYDAYTRGEYVEAGERVVVISQEGSTLKVRVV | -0.611 |
| HMIYQEGMQVKYQGKEYVISEIQDYKTYKTIKLDDNEGYLNGFITGSEILSFRNESELDLEI | -0.208 |
| HMIYSKSDLELFGIKKIDVMEENILMLILSEYELDQTPKNILIDEAVRLSKKFGADNAYKFVNATLDTLL | -1.15 |
| HMKAETILAIPENQPERLFPNNEDEARKIYRDLAREWHTDRNKSPKAQDVFSHLSKLYDIVIDRIKNKTWT | 0.194 |
| HMKAGRNTLARQMAILEVLQKDGRALVDDLAARFETTPQTIRKDLSALAEVNQISRFHGGAALVG | -0.159 |
| HMKAKTYTVQYIDEGKIIKEEELEEGSIINAPEVTKEGHTFIGWYEGEEKYDVYEPITRNLILESKNEIN | -0.176 |
| HMKALEGMRTVFTLADLATEPVTVEITVLEAFKYTTTLEIVQRPVLREWMTNPSMLIRVYHDASTAE | 0.0452 |
| HMKAMIIVMKPGADMATISKVLKTIETNGFKPHLSKGEETTVIGVIGDERKLNPDIFSTLEGVERIVPVA | 0.251 |
| HMKASTRELLDFVLSQRGVSTASVAKALGISVQNASTRLKKLSNEGLIIRSEASSLTGGIEFLYS | -0.822 |
| HMKDASEFLGAKGKTITPLRPTGAAVINGEKVDVLAEGEFIPKNAEIVVIKVEGSKIIVRNANN | -0.061 |
| HMKDDLTWSEGLMPNVVGMGLRDAMFMLENSGLRVNYSGRGKVTRQSPQPGVRIKRGATVAIELRL | -1.89 |
| HMKDEHYLYIKARVDNGDYPHLSELKSAEEIELVMPKLLQDGIVEFNKETGEYTIGEDVKAEIERL | 0.12 |
| HMKDESYALGTRLLSHALGKTKLEDLAQEKIDEVVQQSGNKTLEQLLTNIGLGNALSIGIARQLT | 0.345 |
| HMKDGAKYFQLFGLLKNEINRGIYQSGQKIPGENELAEKYGMSRQTVRQALSLLEQESLIERRQGSGTYVR | -0.121 |

| Sequence | soluble fraction (log2) |
| --- | --- |
| HMKDGMRVYITYHDSEEEPEKPIGDGTTKGWHTNSTASVVWISQKVAESADLGIWGDPIRIKGEA | 0.0608 |
| HMKDIIVDPQGQYNHPGVPTRIPSSDITMKGVGYPVLGIADNGQKQMMQPGQDYKFPGAKYVDEYPQM | 0.185 |
| HMKDIIVLGAIQAGIKKFDKIQKMTQIEPEELNSILEQLENRGFIQVAEKSGLLGKKIEILVTEKGSNEVD | 0.223 |
| HMKDITAVISKKKGRDYYYIIVSYHLSNGKRVQKWIKTEFSVNGNNKRKLEQKRIEILQEWQNKLV | -1.04 |
| HMKDITMPNVYGLTLEMAEQTLKQSELSIFKAMKINSDTVEEGKVIYTDPKANSIVSGDQEITIYVSDGP | 0.411 |
| HMKDKSEKTKKLIFEAAFKIIREEGFSELSANKIAQVASVSKGVIFHHFSQMDDLYLFMLDTL | 0.23 |
| HMKDLTAIKGVGEFFAKKLSQAGYQSITNLTDVNAKRLQADTGIPLPIAARIIKEAQSLIAET | 0.157 |
| HMKDMWNRIRRARLSAGLSQAALAKETGVRRSAVTQWEKEGGTSPSVANLARIAVVTQVHFEWLATGRGPG | -2.76 |
| HMKDNIRSILEDIPNIGPGRRRALLKHFGSIEAIRRASLEDLIKVDGMNRNAALSIMEYFGM | -0.286 |
| HMKDPSLEHIDALAGKPFQAFPGQDHRAHITAHLNFMSTNMVRNNPSIMAAIQKNILEHISLMAQEQIQL | -1.42 |
| HMKEETYHYTVRYVTDGGDILASYEGKATKDSVFFPEVKTFDGYTAVRGEEPMFHLVSDHAVFQIVYQKNG | -1.17 |
| HMKEFEINSQWKPSLEVYDILSVKGGISRNFIEDSIPEFVLYWRGRGDKSNTWDSKFVQHVKRQWNFYSGL | -2.43 |
| HMKEGGREEMSEIVERYGDERALMANITSVQNLMNNMKWTLDQALDALGIKGKERTLITQQLQ | -0.0628 |
| HMKEIATKSELTYFIQRLLDLLEETNFFNPEERKKAMINHIEAIFRRNNLTLQELNMLHGIITSITR | -2.45 |
| HMKEIGGGPASKFIYYLIKTKHPIEQGDLIGITHLPRRTVQSAIEDLKNQGFIIERNSLDDSRRKVYYPVK | -0.943 |
| HMKEIKRLVELSPGRYFIEGATNIRVFGINGSLLLDTKGETVDLSDLAKGVYLLKTDGVTYKVL | -0.506 |
| HMKEIYIDRGKEALEKELRKRKIPFQEFLSKENTNLLFDTLKIPSHDLEELYLEIGNGKHAASTVVNTVY | 0.391 |
| HMKEKQLMTLDDDLYAFLLKHPGIIQKDIYNHFPYDIKGVIADTLYAWDKTGKIKRTKSGNSYIIYT | -0.228 |
| HMKELAADFSRRIINARTSKGWSQADLGQRMAETINVIKSAESGKPPTDAVVKKFETVLGVILM | -1.06 |
| HMKELLDRIFLHETMRRVSQDATITFSKKVYEVPQKFIGRQVTVQYDPEDLSRVYVKDLNFPEPVMVYPVQ | -1.59 |
| HMKELTPEQLQHNWNNLRQFIDVNFSGDRLGGLNKMYDYFEERMMFAPASGKQHYHNAFAGGYVEHVMHV | 0.209 |
| HMKEPGFAPPVRALAAAPITVLAQVAGTNPGEIRARLRAAGYPVASDQQSVQSLVGGDLKAQIGVLNRILA | -0.286 |
| HMKEQIKVPDLSNKTPEEAKKELNTLGLGARKGGEESSDTVEEGLITRQEPAAGEQVDKNTQILFYVSTGK | 0.901 |
| HMKEQLLLGFKVRSLRGIDLGFVKFIEGSAFQSFLKTDLTIIPNVPNYVKKIDNVKKIILVDWESD | -2.8 |
| HMKEQYTELDWDKVQVNDKVMIKDLNQQVTILSLPDKNNALYIQMGMIKTKVKKEKLAVYNPQLA | -2 |
